# Laboratory results as given in patent publication US4446316A, “Dextran derivative of fibrinolysin” (Vsesojuzny Kardiologichesky Nauchny Tsentr, priority 1980, dated 1984).
# “Also recorded” adds a separate entry of the source.
# B1: Fibrinolysin: native enzyme; thrombolytic preparation administered intravenously (protein, UniProt P00747 20-580; P00747 581-810, looked up)
# Plasmin heavy chain A: EPLDDYVNTQGASLFSVTKKQLGAGSIEECAAKCEEDEEFTCRAFQYHSKEQQCVIMAENRKSSIIIRMRDVVLFEKKVYLSECKTGNGKNYRGTMSKTKNGITCQKWSSTSPHRPRFSPATHPSEGLEENYCRNPDNDPQGPWCYTTDPEKRYDYCDILECEEECMHCSGENYDGKISKTMSGLECQAWDSQSPHAHGYIPSKFPNKNLKKNYCRNPDRELRPWCFTTDPNKRWELCDIPRCTTPPPSSGPTYQCLKGTGENYRGNVAVTVSGHTCQHWSAQTPHTHNRTPENFPCKNLDENYCRNPDGKRAPWCHTTNSQVRWEYCKIPSCDSSPVSTEQLAPTAPPELTPVVQDCYHGDGQSYRGTSSTTTTGKKCQSWSSMTPHRHQKTPENYPNAGLTMNYCRNPDADKGPWCFTTDPSVRWEYCNLKKCSGTEASVVAPPPVVLLPDVETPSEEDCMFGNGKGYRGKRATTVTGTPCQDWAAQEPHRHSIFTPETNPRAGLEKNYCRNPDGDVGGPWCYTTNPRKLYDYCDVPQCAAPSFDCGKPQVEPKKCPGR
# Plasmin light chain B: VVGGCVAHPHSWPWQVSLRTRFGMHFCGGTLISPEWVLTAAHCLEKSPRPSSYKVILGAHQEVNLEPHVQEIEVSRLFLEPTRKDIALLKLSSPAVITDKVIPACLPSPNYVVADRTECFITGWGETQGTFGAGLLKEAQLPVIENKVCNRYEFLNGRVQSTELCAGHLAGGTDSCQGDSGGPLVCFEKDKYILQGVTSWGLGCARPNKPGVYVRVSRFVTWIEGVMRNN
# modifications: Plasmin
# notes: native enzyme; thrombolytic preparation administered intravenously
# B2: 1: polysaccharide derivative of fibrinolysin from oxidized polyglucin with the molecular mass of 20,000, reduced with sodium borohydride (conjugate, UniProt P00747 20-580; P00747 581-810, looked up)
# Plasmin heavy chain A: B1 Plasmin heavy chain A
# Plasmin light chain B: B1 Plasmin light chain B
# modifications: plasmin conjugated to oxidized polyglucin, borohydride-reduced
# notes: polysaccharide derivative of fibrinolysin from oxidized polyglucin with the molecular mass of 20,000, reduced with sodium borohydride
# B3: 2: polysaccharide derivative of fibrinolysin from oxidized polyglucin with the molecular mass of 110,000 and the oxidation degree of 20±2% (conjugate, UniProt P00747 20-580; P00747 581-810, looked up)
# Plasmin heavy chain A: B1 Plasmin heavy chain A
# Plasmin light chain B: B1 Plasmin light chain B
# modifications: plasmin conjugated to oxidized polyglucin
# Legend:
# thrombin time = test: Thrombin time in dogs with experimental thrombosis; assay type: in vivo, dog
# Description: (§1) The prolonged effect of the fibrinolysin derivative according to the present invention has been studied in experiments on dogs in comparison with the effect of native fibrinolysin.
# Variation of thrombin time (in seconds) in dogs with expe-
# rimental thrombosis after administration of the fibrinolysin
# derivative according to the present invention and native
# [1] = system: thromboses of a rabbit's jugular vein; test: Thrombolytic activity on model of thrombosis of rabbit's jugular vein (lysis of thrombus); assay type: in vivo
# Description: (§2) The study of the specific (thrombolytic) effect of the polysaccharide fibrinolysin derivative according to the present invention has been studied on models of thromboses of a rabbit's jugular vein and a dog's femoral vein or artery. Thrombi of 1 to 2.5 cm size were formed in the above-mentioned animals which fully obliterated the cross-section of a blood vessel. The administration of the test preparation at the background of heparin was started one hour after the thrombus formation.
# (§3) On the basis of an expected prolonged fibrinolytic effect of the preparation according to the present invention, a test dose of the preparation ranging from 400 to 4,000 units per kg of the bodyweight is dissolved in a physiological solution, 20-30 ml for rabbits and 50-100 ml for dogs, and injected by means of a syringe in a jet-like manner intravenously over 20 minutes, not following the instruction on the use of fibrinolysin (intravenously by the dropwise method at a rate of 10-12 drops per minute).
# (§4) The dynamics of the thrombus formation and lysis was observed visually and by palpation during 6 hours of the experiment, after one, two and three days. The angiography and fluorometry were carried out prior to the beginning of the treatment and one day after the administration of the preparation.
# [2] = system: thromboses of a dog's femoral vein or artery; test: Thrombolytic activity on model of thrombosis of dog's femoral vein (lysis of thrombus); assay type: in vivo; details: dogs, n=1
# Description: as §2, §3, §4
# [3] = system: euglobulin fraction of dog's plasma; test: Lysis duration of the euglobulin fraction of dog's plasma with experimental thrombosis; assay type: in vivo
# Description: as §1
# Variation of lysis duration (in minutes) of the euglobulin
# fraction of dog's plasma with experimental thrombosis upon
# administration of the fibrinolysin derivative according to
# the present invention and native fibrinolysin
# experimental thrombosis = test: Duration of fibrinolytic effect and effective dose in experimental thrombosis; assay type: in vivo, rabbits, dogs
# Description: as §2, §3, §4
# blood coagulation = test: Blood coagulation and bleeding during therapy of experimental thrombosis; assay type: in vivo, rabbit
# Description: as §2, §3, §4
# [4] = Solubility and hygroscopicity of the preparation; assay type: physicochemical; details: for Solubility in 0.9% isotonic solution of sodium chloride: 0.9% sodium chloride; for Hygroscopicity: lyophilized powder
# [5] = Fibrinolytic activity of the preparation; assay type: biochemical; details: for Specific (fibrinolytic) activity: lyophilized preparation; for Total activity relative to the initial value: of the initial value
# [6] = before administration (baseline)
molecule,measurement,setting,value
B1,Thrombin time,thrombin time; after 2 hours,195 s
same,Thrombin time,thrombin time; after 1 day,95 s
same,Thrombin time,thrombin time; after 2 days,97 s
same,"Thrombin time, initial parameter",thrombin time; [6],22 s
same,Efficiency of the therapy (lysis of thrombus),"[1]; rabbits, 600 units/kg i.v.",no lysis
same,Efficiency of the therapy (lysis of thrombus),"[1]; rabbits, 800 units/kg i.v. (Table 1: 2 animals full lysis, 1 animal no lysis)",full lysis; also recorded: no lysis
same,Efficiency of the therapy (lysis of thrombus),"[1]; rabbits, 800 units/kg i.v. (Table 1: 2 animals full lysis, 1 animal no lysis), listed as fibrinolysin",no thrombolytic effect in all cases
same,Efficiency of the therapy (lysis of thrombus),"[1]; rabbits, 1,200 units/kg i.v.",full lysis
same,Efficiency of the therapy (lysis of thrombus),"[1]; rabbits, 2,000 units/kg i.v.",full lysis
same,Death of animals,"[1]; rabbits, 4,000 units/kg i.v.",death of animals
same,Efficiency of the therapy (lysis of thrombus),"[1]; rabbits, 4,000 units/kg i.v.",full lysis
same,Efficiency of the therapy (lysis of thrombus),"[2]; femoral vein, 800 units/kg i.v.",no lysis
same,Efficiency of the therapy (lysis of thrombus),"[2]; femoral vein, 1,600 units/kg i.v.",full lysis
same,Lysis duration of the euglobulin fraction,[3]; after 2 hours,3 min
same,Lysis duration of the euglobulin fraction,[3]; after 1 day,105 min
same,Lysis duration of the euglobulin fraction,[3]; after 2 days,90 min
same,"Lysis duration of the euglobulin fraction, initial parameter",[3]; [6],38 min
same,Lysis of a thrombus at the minimal therapeutic dose,experimental thrombosis; 800 units/kg of the bodyweight,does not always cause the lysis of a thrombus
same,Duration of the fibrinolytic effect,experimental thrombosis; after administration,limited to one day
same,Minimal effective (therapeutical) dose,experimental thrombosis; single intravenous jet-like infusion,800 units/kg
same,Bleeding,blood coagulation; during treatment,bleeding
same,Changes in the third phase of blood coagulation,blood coagulation; during treatment,pathological changes in the third phase of blood coagulation
same,Content of fibrinogen,blood coagulation; first hours after administration,down to zero
B2,Solubility in 0.9% isotonic solution of sodium chloride,[4],soluble
same,Solubility in 95% ethanol,[4],substantially insoluble
same,Solubility in chloroform,[4],substantially insoluble
same,Solubility in ether,[4],substantially insoluble
same,Hygroscopicity,[4],hygroscopic
same,Solubility in water,[4],soluble
same,Specific (fibrinolytic) activity,[5],21.2 units/mg
same,Total activity relative to the initial value,[5],31.0%
same,Total activity,[5]; whole batch,48200 units
B3,Solubility in 0.9% isotonic solution of sodium chloride,[4],readily soluble
same,Solubility in 95% ethanol,[4],substantially insoluble
same,Solubility in chloroform,[4],substantially insoluble
same,Solubility in ether,[4],substantially insoluble
same,Hygroscopicity,[4],hygroscopic
same,Solubility in water,[4],readily soluble
same,Specific (fibrinolytic) activity,[5],24 units/mg
same,Total activity relative to the initial value,[5],30%
